Data on 55 substances can be found in patent US20020090382A1, “Antiviral compounds and methods” (University of Pittsburgh of the Commonwealth System of …, priority 2000, published 2002).

Assay [1] concerns the target HveC on CHO-HveC cells (UniProt Q15223). Description: cell-based or functional assay.
Assay [2] has as its target HveA on CHO-HveA cells (UniProt Q92956). Description: cell-based or functional assay.

HveA on CHO-HveA cells, sequence (Q92956 39-283 limits assumed): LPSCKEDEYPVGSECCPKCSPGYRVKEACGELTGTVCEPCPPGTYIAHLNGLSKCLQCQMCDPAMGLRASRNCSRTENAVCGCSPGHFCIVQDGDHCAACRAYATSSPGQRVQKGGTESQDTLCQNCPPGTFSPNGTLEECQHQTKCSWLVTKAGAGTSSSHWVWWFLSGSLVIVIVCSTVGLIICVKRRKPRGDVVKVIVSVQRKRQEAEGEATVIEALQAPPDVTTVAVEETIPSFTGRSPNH
HveC on CHO-HveC cells, sequence (Q15223 31-517 limits assumed): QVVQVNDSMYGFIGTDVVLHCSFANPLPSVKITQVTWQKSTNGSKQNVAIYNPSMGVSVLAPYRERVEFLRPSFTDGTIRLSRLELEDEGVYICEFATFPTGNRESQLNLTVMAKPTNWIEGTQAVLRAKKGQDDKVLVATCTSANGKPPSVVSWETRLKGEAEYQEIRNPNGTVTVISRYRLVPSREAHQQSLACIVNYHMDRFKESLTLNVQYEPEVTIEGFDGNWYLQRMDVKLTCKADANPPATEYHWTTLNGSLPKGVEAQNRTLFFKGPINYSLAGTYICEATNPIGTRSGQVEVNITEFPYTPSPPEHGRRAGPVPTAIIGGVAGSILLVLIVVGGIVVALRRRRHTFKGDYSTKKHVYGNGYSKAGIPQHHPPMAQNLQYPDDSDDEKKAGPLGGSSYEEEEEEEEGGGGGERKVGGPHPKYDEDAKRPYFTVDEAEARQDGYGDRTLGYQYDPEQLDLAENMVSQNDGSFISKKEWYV

As to gD A7H (ligand), in assay [1], the % Complementation, CHO-HveC turned out to be 100%. The same substance yielded a % Complementation, CHO-HveA in assay [2] of 80%.
For gD A7L (ligand), in assay [1], the % Complementation, CHO-HveC came to 100%. In assay [2], this substance displayed a % Complementation, CHO-HveA of 0%.
For gD A7R (ligand) the same measures were 98% and 0%.
For the substance gD D6A (ligand), the % Complementation, CHO-HveC in assay [1] stood at 99%. In addition, the % Complementation, CHO-HveA in assay [2] came to 0%.
As for gD D6L (ligand), the % Complementation, CHO-HveC in assay [1] is 98%. In assay [2], this substance yielded a % Complementation, CHO-HveA of 0%.
“gD D26H (from UniProt A1Z0Q5 26-394) (ligand)” registered a % Complementation, CHO-HveC in assay [1] of 11%. Further, the % Complementation, CHO-HveA in assay [2] was determined as 10%.
For gD D26S (ligand), the % Complementation, CHO-HveC in assay [1] was determined as 7%. This substance had a % Complementation, CHO-HveA in assay [2] of 20%.
In assay [1], gD D26V (ligand) registered a % Complementation, CHO-HveC of 26%. In assay [2], this substance registered a % Complementation, CHO-HveA of 0%.
Substance “gD D30H (from UniProt A1Z0Q5 26-394) (ligand)” displayed a % Complementation, CHO-HveC in assay [1] of 6%. For the same substance, in assay [2], the % Complementation, CHO-HveA was determined as 0%.
As for gD D30I (ligand), in assay [1], the % Complementation, CHO-HveC was 4%. In assay [2], this substance displayed a % Complementation, CHO-HveA of 0%.
For gD D30V (ligand) the same measures were 8% and 0%.
Taken in the same sequence, the figures for “gD G33L (from UniProt A1Z0Q5 26-394) (ligand)” were 79% and 9%.
As to gD H39Q (ligand), the % Complementation, CHO-HveC in assay [1] was 100%. For the same substance, in assay [2], the % Complementation, CHO-HveA amounted to 50%.
Take gD H39V (ligand): in assay [1], the % Complementation, CHO-HveC was 66%. This substance also registered a % Complementation, CHO-HveA in assay [2] of 75%.
In assay [1], gD I40A (ligand) had a % Complementation, CHO-HveC of 0%. This substance yielded a % Complementation, CHO-HveA in assay [2] of 0%.
In assay [1], “gD I40N (from UniProt A1Z0Q5 26-394) (ligand)” returned a % Complementation, CHO-HveC of 0%. In addition, in assay [2], the % Complementation, CHO-HveA came to 0%.
As for gD K1D (ligand), in assay [1], the % Complementation, CHO-HveC is 100%. The substance also registered a % Complementation, CHO-HveA in assay [2] of 100%.
In assay [1], gD L9A (ligand) had a % Complementation, CHO-HveC of 100%. For the same substance, the % Complementation, CHO-HveA in assay [2] is 0%.
In assay [1], gD L9P (ligand) returned a % Complementation, CHO-HveC of 100%. Moreover, in assay [2], the % Complementation, CHO-HveA is 0%.
For the substance gD L9R (ligand), the % Complementation, CHO-HveC in assay [1] was found to be 97%. Besides, the % Complementation, CHO-HveA in assay [2] amounted to 0%.
Taken in the same sequence, the figures for “gD L25D (from UniProt A1Z0Q5 26-394) (ligand)” were 14% and 0%.
For the substance “gD L25H (from UniProt A1Z0Q5 26-394) (ligand)”, the % Complementation, CHO-HveC in assay [1] is 12%. For the same substance, the % Complementation, CHO-HveA in assay [2] was 0%.
Substance “gD L25I (from UniProt A1Z0Q5 26-394) (ligand)” yielded a % Complementation, CHO-HveC in assay [1] of 5%. The same substance had a % Complementation, CHO-HveA in assay [2] of 0%.
In assay [1], “gD L25T (from UniProt A1Z0Q5 26-394) (ligand)” came in with a % Complementation, CHO-HveC of 3%. The % Complementation, CHO-HveA in assay [2] came to 0%.
For gD L28C (ligand) the same measures were 100% and 0%.
For gD L28F (ligand), the % Complementation, CHO-HveC in assay [1] came out at 41%. The % Complementation, CHO-HveA in assay [2] was found to be 0%.
In turn, gD L28G (ligand) registered a % Complementation, CHO-HveC in assay [1] of 100%. Besides, the % Complementation, CHO-HveA in assay [2] worked out at 0%.
Take gD L28P (ligand): the % Complementation, CHO-HveC in assay [1] stood at 69%. This substance returned a % Complementation, CHO-HveA in assay [2] of 0%.
In the case of gD L28S (ligand), the % Complementation, CHO-HveC in assay [1] was determined as 83%. In assay [2], the % Complementation, CHO-HveA worked out at 0%.
As for gD L44C (ligand), in assay [1], the % Complementation, CHO-HveC came to 83%. For the same substance, in assay [2], the % Complementation, CHO-HveA was determined as 69%.
For gD L44G (ligand) the same measures were 8% and 0%.
For gD L44P (ligand) the same measures were 71% and 53%.
The substance “gD P31G (from UniProt A1Z0Q5 26-394) (ligand)” came in with a % Complementation, CHO-HveC in assay [1] of 100%. The same substance showed a % Complementation, CHO-HveA in assay [2] of 0%.
The substance “gD P32H (from UniProt A1Z0Q5 26-394) (ligand)” had a % Complementation, CHO-HveC in assay [1] of 100%. In addition, the % Complementation, CHO-HveA in assay [2] worked out at 6%.
For the substance gD Q27G (ligand), the % Complementation, CHO-HveC in assay [1] turned out to be 0%. In assay [2], this substance registered a % Complementation, CHO-HveA of 0%.
gD Q27H (ligand) displayed a % Complementation, CHO-HveC in assay [1] of 14%. This substance gave a % Complementation, CHO-HveA in assay [2] of 0%.
gD Q27P (rid1) (ligand) registered a % Complementation, CHO-HveC in assay [1] of 83%. In assay [2], the % Complementation, CHO-HveA is 0%.
Turning to gD Q27S (ligand), the % Complementation, CHO-HveC in assay [1] is 9%. The % Complementation, CHO-HveA in assay [2] was found to be 0%.
In assay [1], gD Q27T (ligand) returned a % Complementation, CHO-HveC of 0%. Moreover, in assay [2], the % Complementation, CHO-HveA was 0%.
In the case of gD Q41P (ligand), in assay [1], the % Complementation, CHO-HveC was 18%. For the same substance, in assay [2], the % Complementation, CHO-HveA worked out at 0%.
“gD R36A (from UniProt A1Z0Q5 26-394) (ligand)”: the % Complementation, CHO-HveC in assay [1] was found to be 0%. This substance also gave a % Complementation, CHO-HveA in assay [2] of 0%.
The substance “gD R36D (from UniProt A1Z0Q5 26-394) (ligand)” registered a % Complementation, CHO-HveC in assay [1] of 0%. The substance also registered a % Complementation, CHO-HveA in assay [2] of 0%.
As to “gD R36I (from UniProt A1Z0Q5 26-394) (ligand)”, the % Complementation, CHO-HveC in assay [1] worked out at 0%. The same substance registered a % Complementation, CHO-HveA in assay [2] of 0%.
On to gD S8A (ligand), for which, in assay [1], the % Complementation, CHO-HveC was 100%. In assay [2], this substance showed a % Complementation, CHO-HveA of 40%.
In the case of gD S8L (ligand), in assay [1], the % Complementation, CHO-HveC was found to be 99%. This substance also registered a % Complementation, CHO-HveA in assay [2] of 0%.
For gD T29G (ligand) the same measures were 100% and 0%.
On to gD T29Y (ligand), for which the % Complementation, CHO-HveC in assay [1] was 100%. Also, the % Complementation, CHO-HveA in assay [2] is 0%.
Taken in the same sequence, the figures for gD^-R (gD A5I) (ligand) were 100% and 85%.
In assay [1], gDΔ2-5 (ligand) gave a % Complementation, CHO-HveC of 95%. The substance also returned a % Complementation, CHO-HveA in assay [2] of 0%.
For gDΔ6-9 (ligand) the same measures were 100% and 0%.
For gDΔ6-24:GSK (ligand) the same measures were 19% and 0%.
Consider gDΔ10-16 (ligand), for which the % Complementation, CHO-HveC in assay [1] was 100%. In assay [2], this substance yielded a % Complementation, CHO-HveA of 0%.
For gDΔ17-21 (ligand), in assay [1], the % Complementation, CHO-HveC is 100%. The % Complementation, CHO-HveA in assay [2] was 0%.
Take gDΔ21-24 (ligand): the % Complementation, CHO-HveC in assay [1] came out at 100%. The substance further came in with a % Complementation, CHO-HveA in assay [2] of 0%.
With “wild-type gD (HSV-1 strain KOS) (ligand)”, the % Complementation, CHO-HveC in assay [1] is 100%. The substance also came in with a % Complementation, CHO-HveA in assay [2] of 100%.
